Data set [1] addresses bovine serum albumin (BSA) (UniProt P02769 P02769:25-607). Put plainly: ELONA; BSA control beads, not different from No DNA. The method, then: Protein-modified magnetic beads were prepared by functionalising 1 mg of epoxy beads with either 10 μg of hCG or negative control proteins BSA or HSA (as in Example 2). Once functionalised, aliquots of the beads corresponding to 72 μg beads were added to individual wells of a 96-well plate which were pre-blocked with 3% w/v milk powder (in HMCKN-T buffer composed of 20 mM HEPES, 2 mM MgCl₂, 2 mM CaCl₂, 2 mM KCl, 150 mM NaCl, pH 7.4, supplemented with 0.002% v/v TWEEN 20.) Bead samples were prepared in triplicate.
A variation of the qPCR assay (FIG. 9) was employed using biotinylated aptamer sequences, creating a colourimetric ELONA (FIG. 10). During the colourimetric ELONA study, 5′ biotinylated full-length aptamer sequences were exposed to protein-modified beads—either hCG target or Bovine Serum Albumin (the bovine equivalent of HSA). After rinsing unbound aptamers from the beads, the colorimetric signal, proportional to the amount of biotinylated aptamer present, was generated by the addition of HRP-conjugated streptavidin and the subsequent HRP-catalysed oxidation of TMB.

The target in data set [2] is human chorionic gonadotropin (hCG), alpha/beta heterodimer (Homo sapiens, UniProt P01215;P0DN86 P01215:25-116,P0DN86:21-165). Description: EMSA; very slight band decrease; ELONA signal similar to No DNA. The conditions noted are these: tags: Abcam ab126652, isolated from human urine, >=50% pure; label: 5' biotin.
Chain of human chorionic gonadotropin (hCG), alpha/beta heterodimer (P01215 25-116, chain 1 of 2, other chains not shown): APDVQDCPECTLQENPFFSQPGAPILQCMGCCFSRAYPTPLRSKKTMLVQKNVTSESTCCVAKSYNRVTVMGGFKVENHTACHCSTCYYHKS

Chain of bovine serum albumin (BSA) (P02769 25-607, one chain of several): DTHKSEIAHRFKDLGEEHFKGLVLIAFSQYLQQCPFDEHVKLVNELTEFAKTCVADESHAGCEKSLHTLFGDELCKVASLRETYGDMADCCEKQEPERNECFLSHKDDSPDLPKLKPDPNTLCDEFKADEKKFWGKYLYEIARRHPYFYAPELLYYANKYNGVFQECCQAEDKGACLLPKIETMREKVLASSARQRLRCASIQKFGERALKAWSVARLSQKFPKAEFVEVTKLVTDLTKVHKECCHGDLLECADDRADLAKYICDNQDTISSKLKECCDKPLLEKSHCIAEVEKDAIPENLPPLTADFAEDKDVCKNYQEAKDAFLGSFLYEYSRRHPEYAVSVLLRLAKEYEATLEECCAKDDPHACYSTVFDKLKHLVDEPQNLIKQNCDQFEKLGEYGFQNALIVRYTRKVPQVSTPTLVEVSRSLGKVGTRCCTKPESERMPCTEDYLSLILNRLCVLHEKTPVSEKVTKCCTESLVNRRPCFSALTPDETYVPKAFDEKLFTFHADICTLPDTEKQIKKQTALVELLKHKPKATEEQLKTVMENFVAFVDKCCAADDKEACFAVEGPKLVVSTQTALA

Take CAACTATTTCAGTATTCTAGAAAGGTCAAACCTTAGGAGC (ssDNA) [R6_5 truncated]: in data set [1] (label: 5' biotin), the binding result is “no binding”.
Take CAAGGATCGGCTCAACTTAATATTGGAGGGATAGTGTTGG (ssDNA) [R5_4 truncated]: the binding result in data set [1] (label: 5' biotin) is given as “no binding”.
On to ACCTGCTGACATTGGGTGGGTCCTGAACCATTTTTAATCA (ssDNA) [R4_64 truncated], for which, in data set [1] (label: 5' biotin (3' biotin variant also used)), the binding result is listed as “no binding”.
On to TGGACGAGGTATCTCGTATCATTGGCACCTAAAACTCCGT (ssDNA) [R4_1 truncated (amplification artefact control)], for which the binding result in data set [1] (label: 5' biotin) and in data set [2] was “no binding” in each case.

Source of the values: patent US20250347705, “Epitope-Specific hCG Binding Aptamers and Applications Thereof” (Rhodes University, published 2025).
